{"source": "patent US9649378B2", "about": "“Cancer methods” (priority 2010, dated 2017)", "molecules": {"B1": {"name": "r-OPCML: Purified recombinant human OPCML domain 1-3 protein from E. coli, excluding signal peptide and GPI anchor sequences; SEQ ID No 5 (protein, listed as Homo sapiens)", "chain": "PKAMDNVTVRQGESATLRCTIDDRVTRVAWLNRSTILYAGNDKWSIDPRVIILVNTPTQYSIMIQNVDVYDEGPYTCSVQTDNHPKTSRVHLIVQVPPQIMNISSDITVNEGSSVTLLCLAIGRPEPTVTWRHLSVKEGQGFVSEDEYLEISDIKRDQSGEYECSALNDVAAPDVRKVKITVNYPPYISKAKNTGVSVGQKGILSCEASAVPMAEFQWFKEETRLATGLDGMRIENKGRMSTLTFFNVSEKDYGNYTCVATNKLGNTNASIT"}}, "key": {"[1]": {"tested_on": "receptor tyrosine kinase signaling in SKOV-3 and A2780 cells", "assay": "Western blot / IFM of RTKs and downstream signalling after exogenous OPCML", "format": "cell-based", "settings": "for RTK levels and RTK signalling: 2 μM for 48 h, Western blot", "method": "FIG. 9: Cellular uptake of recombinant OPCML. SKOV-3 cells were incubated with vehicle alone or vehicle including 2 μM OPCML for 24 h. Cells were then washed 3× with PBS and fixed with 4% PFA. Cells were then prepared for IFM using rabbit α-HER2 mAb and mouse α-OPCML mAb. Goat α-rabbit alexa-488 and α-mouse alexa-555 secondary antibodies were used. Slides were imaged using a Leica SP5 confocal microscope.\n(§1) (A) Western Blot analysis of pHER, tHER2, tEGFR, pEGFR, tFGFR, pFGFR proteins from SKOV-3 cells untreated, treated with vehicle only or OPCML (2 μM) for 48 h. (B) Western blot analysis of pAKT, tAKT, pERK, tERK proteins from SKOV-3 cells untreated, treated with vehicle only or OPCML (2 μM) for 48 h. Protein loading was standardised by BCA-assay and β-tubulin was used as a loading control.\nas §1, with “SKOV-3 and A2780” for “SKOV-3”, “cells” for “cells untreated,”, “tERK,” for “tERK”"}, "[2]": {"tested_on": "lung cancer cells (H69, H501, A549, HCC95)", "assay": "in vitro growth assay (MTT-based) with rOPCML, lung lines", "format": "cell-based", "settings": "10 μM rOPCML", "method": "(§2) (B) a 96 h in vitro SKOV-3 growth assay with 2 μM rOPCML administered to growth media. Time points were collected every 24 h and normalised to control cells treated with vehicle only. (C) Normal ovarian surface epithelial cells (OSE-C2) and a panel of ovarian (SKOV-3, IGROV, OVISE, OVCAR-5, A2780, PEA1 and PEA2), HER2-positive (MDA-231) and negative (BT-474) breast cancer cells and non-adherant (H69, H501 small-cell) and adherent (A549 carcinoma, HCC95 non-SSLC squamous) lung cancer cells were subjected to an in vitro growth assay with 10 μM of rOPCML. Time points were collected at 24 and 48 h and cell growth was normalised to vehicle only controls. Cell viability was quantified in all experiments using an MU-based assay and measured at 570 nm. Caspase cleavage-based apoptosis assays using (D) A2780 and (E) SKOV-3 were undertaken with administration of rOPCML (2, 5 and 10 μM) over 24 h. Caspase cleavage was quantified using the GaspaseGlo kit and normalised to cell viability."}, "[3]": {"tested_on": "SKOV-3 and A2780 ovarian cancer cells", "assay": "Annexin V FACS and caspase-glo apoptosis assays with r-OPCML", "format": "cell-based", "method": "as §2\nPurified recombinant human OPCML domain 1-3 protein (r-OPCML) (FIG. 8) was produced from the bacterial expression vector (pHis-Trx) subcloned with domains 1-3 of OPCML, excluding the signal peptide and GPI anchor sequences (FIG. 8A)."}, "[4]": {"tested_on": "normal ovarian surface epithelial cells (OSE-C2)", "assay": "in vitro growth assay (MTT-based) with rOPCML", "format": "cell-based", "settings": "OSE-C2, OPCML expressing", "method": "(§3) (A) SKOV-3 cells were subjected to a 48 h in vitro growth assay with varying concentrations of OPCML administration. (B) A 96 h in vitro SKOV-3 growth assay with 2 μM rOPCML administered to growth media. Time points were collected every 24 h and normalised to control cells treated with vehicle only. Cell viability was quantified using MTT and measured at 570 nm. (C) Upper panel—OSE-C2 and SKOV-3 cells were subjected to a 48 h in vitro growth assay with varying OPCML concentrations (0.5, 1, 2, 5 and 10 μM); lower panel—normal ovarian surface epithelial cells (OSE-C2) and a panel of ovarian (SKOV-3, IGROV, OVISE, OVCAR-5, A2780, PEA1 and PEA2) and […] breast cancer cells were subjected to an in vitro growth assay with 10 μm OPCML. Time points were collected at 24 h and 48 h and cell growth was monitored to vehicle only controls. Cell viability was quantified in all experiments using an MTT-based assay and measured at 570 nm.\nas §2, with “viability. […]” for “viability.”"}, "[5]": {"tested_on": "SKOV-3 cells", "assay": "in vitro growth assay (MTT-based) with rOPCML added to growth media", "settings": "0.5-10 μM for 48 h or 2 μM for 96 h", "method": "as §3\n(B) a 96 h in vitro SKOV-3 growth assay with 2 μM rOPCML administered to growth media. Time points were collected every 24 h and normalised to control cells treated with vehicle only. […] Cell viability was quantified in all experiments using an MU-based assay and measured at 570 nm. […] Caspase cleavage was quantified using the GaspaseGlo kit and normalised to cell viability. […]"}, "[6]": {"tested_on": "ovarian cancer cell lines (SKOV-3, IGROV, OVISE, OVCAR-5, A2780, PEA1 and PEA2)", "assay": "in vitro growth assay (MTT-based) with rOPCML, ovarian panel", "format": "cell-based", "settings": "for growth of ovarian and breast cancer cell lines: 10 μM, 24 h and 48 h, versus vehicle only; for ovarian cancer cell lines growth-inhibited / killed, of lines tested: in vitro", "method": "(§4) We have tested 0.5, 1, 2, 5 and 10 μM of recombinant […] human OPCML in vitro, and there is a linear dose response which has not yet peaked. […] The physician skilled in the art will be able to identify suitable doses based upon this information and their skill in the art.\nas §3, §2"}, "[7]": {"tested_on": "SKOV-3 cancer cells injected intraperitoneally", "assay": "intraperitoneal tumour growth assay, r-OPCML versus BSA", "format": "in vivo, nude mouse", "settings": "for IP tumour growth / tumour weight: 1 ml (10 μM) IP twice weekly, 3 weeks", "method": "(§5) Comparison of r-OPCML and control protein (bovine serum albumen) treated A2780 and SKOV-3 cell lines. (A) Gross anatomical observation of the animals (B) Intraperitoneal tumour growth assay. Tumours were removed, weighed and photographed after 3 weeks of twice-weekly 1 mL intraperitoneal injection of 10 μM r-OPCML or BSA. Representative A2780 and SKOV-3 tumour xenografts from 4 animals are presented. A scale bar is shown. (C) mean tumour weight, (D) number of deposits and (E) volume of ascites removed per mouse from the intraperitoneal assay presented in B. Comparison is shown between tumours and ascites collected from BSA- (−) and r-OPCML-treated (+) mice. (F) Western blot analysis of recovered tumours from control (BSA) and r-OPCML treated animals recapitulates in-vitro findings.\n(§6) In view of these in-vitro findings, we proceeded to determine whether r-OPCML protein had potential and relevance as an in-vivo tumour suppressor therapy. Mice with either SKOV-3 or A2780 cancer cells injected intraperitoneally (IP), after tumour establishment, received twice-weekly IP injections of either 1 ml (10 μM) bovine serum albumin (BSA) or 1 ml (10 μM) r-OPCML."}, "[8]": {"tested_on": "A2780 cancer cells injected intraperitoneally", "assay": "intraperitoneal tumour growth assay, r-OPCML versus BSA", "format": "in vivo, nude mouse", "settings": "A2780 model; for IP tumour growth / tumour weight: 1 ml (10 μM) IP twice weekly, 3 weeks; for IP tumour growth / tumour weight / ascites formation / volume / number of IP peritoneal deposits / peritoneal dissemination: versus BSA", "method": "as §5, §6"}, "[9]": {"tested_on": "HER2-positive (MDA-231) and negative (BT-474) breast cancer cells", "assay": "in vitro growth assay (MTT-based) with rOPCML, breast lines", "format": "cell-based", "settings": "for breast cancer cell lines growth-inhibited / killed, of lines tested: both HER2 positive and HER2 negative", "method": "as §4, §3\nas §2, with “Caspase cleavage-based apoptosis assays using (D) A2780 and (E) SKOV-3 were undertaken with administration of rOPCML (2, 5 and 10 μM) over 24 h.” left out"}, "[10]": {"settings": "0.5, 1, 2, 5 and 10 μM tested in vitro, ovarian and breast cancer cell lines"}, "[11]": {"settings": "listed as recombinant full length human OPCML"}, "[12]": {"settings": "SKOV-3 model, versus BSA, listed as rOPCML"}}, "note": "“Also recorded” adds a separate entry of the source."}
{"molecule": "B1", "values": [{"measurement": "RTK levels and RTK signalling", "setting": "[1]", "result": "potently downregulated"}, {"measurement": "RTK levels and RTK signalling", "setting": "[1]; listed as Exogenous OPCML", "result": "inhibits RTK signaling"}, {"measurement": "RTK levels and RTK signalling", "setting": "[1]; listed as exogenous OPCML", "result": "inhibits receptor tyrosine kinase signaling"}, {"measurement": "RTK levels and RTK signalling", "setting": "[1]; listed as rOPCML", "result": "abrogates total RTK levels and inhibits RTK signalling"}, {"measurement": "ERK protein levels", "setting": "[1]; SKOV-3, 2 μM OPCML 48 h", "result": "downregulates"}, {"measurement": "HER2 protein level", "setting": "[1]; SKOV-3, 2 μM OPCML, listed as exogenous OPCML", "result": "downregulation of HER2; also recorded: downregulates"}, {"measurement": "pERK and pAKT", "setting": "[1]; SKOV-3 and A2780, immunoblotting", "result": "abrogating pERK and pAKT"}, {"measurement": "AKT S473 phosphorylation", "setting": "[1]; administration to cancer cells in vitro", "result": "inhibits phospho S473 AKT; also recorded: inhibits AKT s473 phosphorylation"}, {"measurement": "lung cancer cell lines with profoundly inhibited cell growth, of lines tested", "setting": "[2]", "result": "5 of 5"}, {"measurement": "apoptosis in caspase-glo assay", "setting": "[3]; 2, 5 and 10 μM over 24 h", "result": "induces apoptosis in both these cell lines in a dose dependent fashion"}, {"measurement": "early apoptosis, time post exposure", "setting": "[3]; Annexin V FACS apoptosis assay, depending on cell line", "result": "2 to 6", "unit": "h"}, {"measurement": "effect on normal ovarian surface epithelial cells", "setting": "[4]", "result": "without affecting normal ovarian surface epithelial cells"}, {"measurement": "effect on normal ovarian surface epithelial cells", "setting": "[4]; listed as OPCML", "result": "sparing normal ovarian surface epithelial cells"}, {"measurement": "effect on normal ovarian surface epithelial cells", "setting": "[4]; listed as rOPCML", "result": "no effect"}, {"measurement": "SKOV-3 cell growth in vitro", "setting": "[5]", "result": "specific, dose-dependent inhibition of cell growth"}, {"measurement": "SKOV-3 cell growth in vitro", "setting": "[5]; listed as exogenous OPCML", "result": "inhibits SKOV-3 cell growth"}, {"measurement": "growth of ovarian and breast cancer cell lines", "setting": "[6]; listed as Exogenous OPCML", "result": "inhibits growth"}, {"measurement": "growth of ovarian and breast cancer cell lines", "setting": "[6]; listed as OPCML", "result": "inhibits growth"}, {"measurement": "growth of ovarian and breast cancer cell lines", "setting": "[6]; listed as rOPCML", "result": "specifically inhibits"}, {"measurement": "concentration from which inhibition of cell growth is seen", "setting": "[6]; [10]", "result": "≥ 2", "unit": "μm"}, {"measurement": "concentration giving frank cell death", "setting": "[6]; [10]", "result": "5 to 10", "unit": "µM"}, {"measurement": "response of PEA2 cell line", "setting": "[6]; PEA2", "result": "resistance"}, {"measurement": "ovarian cancer cell lines growth-inhibited / killed, of lines tested", "setting": "[6]", "result": "6 of 7"}, {"measurement": "ovarian cancer cell lines growth-inhibited / killed, of lines tested", "setting": "[6]; listed as rOPCML", "result": "6/7"}, {"measurement": "ovarian cancer cell lines growth-inhibited / killed, of lines tested", "setting": "[6]; [11]", "result": "6/7"}, {"measurement": "RTKs in recovered IP tumour (Western blotting)", "setting": "[7]; SKOV3 IP tumour, r-OPCML versus BSA treated", "result": "same spectrum of RTKs inhibited"}, {"measurement": "peritoneal dissemination", "setting": "[7]; SKOV3 model, versus BSA", "result": "profound inhibition"}, {"measurement": "IP tumour growth / tumour weight", "setting": "[7]; SKOV-3 model, versus BSA", "result": "significantly and profoundly suppressed"}, {"measurement": "IP tumour growth / tumour weight", "setting": "[7]; SKOV-3 model, versus BSA, listed as Recombinant OPCML", "result": "reduces tumour growth"}, {"measurement": "IP tumour growth / tumour weight", "setting": "[7]; [12]", "result": "profound inhibition"}, {"measurement": "condition of animals at 3 weeks", "setting": "[7]; SKOV-3 model, BSA controls deteriorating", "result": "remained well"}, {"measurement": "ascites formation / volume", "setting": "[7]; SKOV-3 model, versus BSA", "result": "significantly and profoundly suppressed"}, {"measurement": "ascites formation / volume", "setting": "[7]; [12]", "result": "profound inhibition"}, {"measurement": "IP tumour growth / tumour weight", "setting": "[8]", "result": "significantly and profoundly suppressed"}, {"measurement": "IP tumour growth / tumour weight", "setting": "[8]; listed as Recombinant OPCML", "result": "reduces tumour growth"}, {"measurement": "IP tumour growth / tumour weight", "setting": "[8]; listed as rOPCML", "result": "profound inhibition"}, {"measurement": "condition of animals at 3 weeks", "setting": "[8]; BSA controls deteriorating", "result": "remained well"}, {"measurement": "ascites formation / volume", "setting": "[8]", "result": "significantly and profoundly suppressed"}, {"measurement": "number of IP peritoneal deposits / peritoneal dissemination", "setting": "[8]", "result": "profoundly inhibited"}, {"measurement": "ascites formation / volume", "setting": "[8]; listed as rOPCML", "result": "profound inhibition"}, {"measurement": "number of IP peritoneal deposits / peritoneal dissemination", "setting": "[8]; listed as rOPCML", "result": "profound inhibition"}, {"measurement": "growth of HER2+ and HER2− breast cancer cell line", "setting": "[9]; 10 μM, 24 h and 48 h", "result": "profoundly inhibited"}, {"measurement": "breast cancer cell lines growth-inhibited / killed, of lines tested", "setting": "[9]", "result": "2 of 2"}, {"measurement": "breast cancer cell lines growth-inhibited / killed, of lines tested", "setting": "[9]; [11]", "result": "2/2"}]}
